Here are results for two substances from patent US20250186597A1, “TARGETED IMMUNE ACTIVATION WITH IL-18 IMMUNOCYTOKINES” (BRIGHT PEAK THERAPEUTICS AG, priority 2023, published 2025).

Assay [1] concerns the target T1, human neonatal Fc receptor (FcRn) (Homo sapiens, UniProt P55899).
T1 construct: purchased Perkin Elmer AL3095C
Briefly: Human FcRn binding AlphaLISA at pH 6 (Example 9). How it is done: The interaction of the unmodified and of conjugated anti-PD1 antibodies with the human neonatal Fc receptor (FcRn) at pH 6 was measured using the AlphaLISA® Human FcRn Binding Kit (AL3095C) from Perkin Elmer (Schwerzenbach, Switzerland). […] When reference IgG binds to FcRn, donor and acceptor beads come into proximity enabling the transfer of singlet oxygen that trigger a cascade of energy transfer reactions in the acceptor beads, resulting in a sharp peak of light emission at 615 nm. Addition of a free IgG antibodies into the AlphaLISA® mixture creates a competition for the binding of FcRn to the reference antibody resulting in a loss of signal.
After 90 min at 23° C. in the dark, AlphaLISA® signal was measured on an EnSpire plate reader (Excitation at 680 nm, Emission at 615 nm) from Perkin Elmer (Schwerzenbach, Switzerland).
For orientation: In Alpha technology, singlet oxygen from a donor bead excites a nearby acceptor bead.

In another assay the target is T2, human PD-1/CD279 (Homo sapiens, UniProt Q15116).
T2 construct: purchased Biolegend #789406
T2 sequence (Q15116 25-288): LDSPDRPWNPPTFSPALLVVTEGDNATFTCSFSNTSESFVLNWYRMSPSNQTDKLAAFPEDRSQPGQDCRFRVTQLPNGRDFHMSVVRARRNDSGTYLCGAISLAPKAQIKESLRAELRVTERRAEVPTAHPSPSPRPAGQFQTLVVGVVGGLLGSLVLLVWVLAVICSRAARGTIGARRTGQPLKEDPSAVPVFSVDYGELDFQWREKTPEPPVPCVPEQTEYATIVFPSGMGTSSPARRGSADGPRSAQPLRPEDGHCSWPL
Briefly: PD-1 binding ELISA assay (Example 5). The settings on record: biotinylated human PD-1. On the procedure: (§1) The interaction of the unmodified antibodies and corresponding IL-18 immunocytokines with relevant immune cell associated antigen are measured by ELISA assay. For these studies, Corning high-binding half-area plates (Fisher Scientific, Reinach, Switzerland) are coated overnight at 4° C. with 25 μl of unmodified antibodies corresponding IL-18 immunocytokines at […] in PBS. […] Plate surfaces are blocked with 25 μl of PBS-0.02% Tween20-1% BSA at 37° C. during 1 h. […] ELISA signal is then measured at 450 nm on an ENSPIRE® plate reader from Perkin Elmer (Schwerzenbach, Switzerland).
(In general: ELISA stands for enzyme-linked immunosorbent assay.)

For another assay, the target named is T3, human PD-L1/B7-H1 (Homo sapiens, UniProt Q9NZQ7).
T3 construct: purchased ACROBiosystems PD1-H82E5-25UG
T3 sequence (Q9NZQ7 19-290): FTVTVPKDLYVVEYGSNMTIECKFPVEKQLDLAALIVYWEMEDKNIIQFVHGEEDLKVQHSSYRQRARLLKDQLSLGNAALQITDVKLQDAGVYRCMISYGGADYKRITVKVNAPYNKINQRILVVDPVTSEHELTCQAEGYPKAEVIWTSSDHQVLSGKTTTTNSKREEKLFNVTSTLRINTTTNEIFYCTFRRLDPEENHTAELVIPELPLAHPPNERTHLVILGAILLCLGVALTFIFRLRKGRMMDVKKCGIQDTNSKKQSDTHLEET
As to the kind of experiment: PD-L1 binding ELISA assay (Example 5). Particulars: biotinylated human PD-L1. How it is done: as §1

Assay [2] deals with T4, human Fc gamma receptors III FcγRIIIa/CD16 (Homo sapiens, UniProt P08637).
T4 construct: purchased R&D systems 4325-FC-050
T4 sequence (P08637 17-254): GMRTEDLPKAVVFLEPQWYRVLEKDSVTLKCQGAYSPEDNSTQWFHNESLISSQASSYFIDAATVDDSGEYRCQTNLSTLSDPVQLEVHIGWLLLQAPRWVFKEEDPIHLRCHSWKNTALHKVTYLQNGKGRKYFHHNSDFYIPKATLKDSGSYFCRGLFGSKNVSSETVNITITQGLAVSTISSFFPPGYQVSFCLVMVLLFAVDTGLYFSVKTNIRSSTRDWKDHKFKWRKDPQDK
As to the kind of experiment: Human FcγR binding ELISA, FcγRIIIa/CD16 (Example 8). The settings on record: ELISA binding affinity. On the procedure: (§2) The interaction of the unmodified and of conjugated antibodies with human Fc gamma receptors I (FcγRI/CD64), with human Fc gamma receptors IIa (FcγRIIa/CD32a), with inhibitory human Fc gamma receptors IIb (FcγRIIb/CD32b), and with human Fc gamma receptors III FcγRIIIa/CD16 were measured by ELISA.
(§3) Briefly, Corning high-binding half-area plates (Fisher Scientific, Reinach, Switzerland) were coated overnight at 4° C. with 25 μl of unmodified and of conjugated anti-PD1 antibodies at 2.5 μg/ml in PBS. […] Plates surfaces were blocked with 25 μl of PBS-0.02% Tween20-1% BSA at 37° C. during 1 h. […] Twenty-five microliters of a 1/500 HRP-anti-His antibody in PBS—0.02% Tween20—0.1% BSA (R&D systems, anti-HIS—HRP Ab, #MAB050H) were added to each well and plates were incubated at Room Temperature during 1 h. […] ELISA signal was then measured at 450 nm on an EnSpire plate reader from Perkin Elmer (Schwerzenbach, Switzerland).

The target in assay [3] is T5, human Fc gamma receptors IIa (FcγRIIa/CD32a) (Homo sapiens, UniProt P12318).
T5 construct: purchased R&D systems 9595-CD-050
T5 sequence (P12318 34-317): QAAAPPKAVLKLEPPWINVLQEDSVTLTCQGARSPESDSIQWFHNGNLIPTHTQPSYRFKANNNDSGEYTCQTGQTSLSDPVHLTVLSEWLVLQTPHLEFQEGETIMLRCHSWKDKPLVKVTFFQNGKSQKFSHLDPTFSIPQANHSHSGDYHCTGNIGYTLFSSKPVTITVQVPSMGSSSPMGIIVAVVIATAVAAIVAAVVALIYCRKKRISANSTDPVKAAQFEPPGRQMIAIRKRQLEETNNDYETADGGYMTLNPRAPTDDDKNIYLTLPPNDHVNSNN
Briefly: Human FcγR binding ELISA, FcγRIIa/CD32a (Example 8). Particulars: ELISA binding affinity. How it is done: as §2, §3

Assay [4] concerns the target T6, human Fc gamma receptors I (FcγRI/CD64) (Homo sapiens, UniProt P12314).
T6 construct: purchased R&D systems 1257-FC-050
Briefly: Human FcγR binding ELISA, FcγRI/CD64 (Example 8). The settings on record: ELISA binding affinity. How it is done: as §2, §3

The target of assay [5] is T7, human Fc gamma receptors IIb (FcγRIIb/CD32b) (Homo sapiens, UniProt P31994).
T7 construct: purchased R&D systems AVI1875-050
T7 sequence (P31994 43-310): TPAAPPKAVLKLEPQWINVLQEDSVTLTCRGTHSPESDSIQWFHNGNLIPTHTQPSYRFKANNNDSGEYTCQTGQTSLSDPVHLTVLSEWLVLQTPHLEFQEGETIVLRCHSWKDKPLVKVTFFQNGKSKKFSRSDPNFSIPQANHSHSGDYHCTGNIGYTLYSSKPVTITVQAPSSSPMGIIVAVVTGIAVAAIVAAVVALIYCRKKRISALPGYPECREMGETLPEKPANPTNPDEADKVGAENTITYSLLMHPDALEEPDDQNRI
Briefly: Human FcγR binding ELISA, FcγRIIb/CD32b (Example 8). The settings on record: ELISA binding affinity. How it is done:
as §2, §3

Assay [6] relates to PD-1 positive (transduced) KG-1 cells. As to the kind of experiment: IFN gamma secretion assay in PD-1 transduced KG-1 cells (Example 11). In kind it is cell-based, human. How it is done:
(§4) The KG-1 cell line was used to generate a PD-1 expressing cell line and furthermore, to measure IFNγ release upon incubation with IL-18 variants and corresponding IL-18 immunocytokines.
PD-1 expressing cell line generation: Briefly, KG-1 cells were transduced using lentiviral particles carrying the human PD-1 gene (PDCD1 NM_005018; Origene, CAT #: RC210364L3V) at a MOI (Multiplicity of Infection) of 30. Spinfection was performed at 1260 g during 90 min at 37° C. in the presence of 5 μg/ml of Polybrene and 10 mM of HEPES in complete culture media (RPMI, 10% FBS, 1% L-Glutamine). Five days after transduction, puromycin at a final concentration of 1 ug/ml was added to select for PD-1 positive cells. For culture maintenance, puromycin concentration was decreased to 0.5 μg/ml. Stable and homogenous expression of PD-1 was verified by surface staining (BD Pharmingen, #557860).
(§5) IFNγ release was assessed in PD-1 positive (transduced) KG-1 cells, as well as in the parental PD-1 negative cells. 0.5×10^5 cells were seeded into a 96-well U-bottom plate in culture media (RPMI, 10% FBS, 1% L-Glutamine) and stimulated with IL-18 variants/ICs for 20-24 h. The test items were diluted to 100 nM in culture medium, followed by 7 10-fold serial dilutions. The lowest concentration assessed was […]. After incubation, IFNγ release was measured using the LEGENDplex custom human mix and match KIT (Biolegend LEGENDplex™ Human IFN-γ Capture Bead B5, 13X #740942, LEGENDplex™ HU Essential Immune Response Panel Detection Abs, #740931, LEGENDplex™ Buffer Set A #740368). To this end, cell culture supernatant was collected and diluted 1:1 with Assay Buffer. Fluorescence measurements were done with a Quanteon Flow Cytometer from Acea Biosciences. For analysis, MFI values (median fluorescence intensity) were exported and plotted against concentrations used. The EC50 values (half maximal effective concentration) were calculated based on a variable slope and four parameter analysis using GraphPad PRISM software version 9.

The target of assay [7] is T8, human IL-18 Binding Protein (IL-18BP) (Homo sapiens, UniProt O95998).
T8 sequence (O95998 31-194): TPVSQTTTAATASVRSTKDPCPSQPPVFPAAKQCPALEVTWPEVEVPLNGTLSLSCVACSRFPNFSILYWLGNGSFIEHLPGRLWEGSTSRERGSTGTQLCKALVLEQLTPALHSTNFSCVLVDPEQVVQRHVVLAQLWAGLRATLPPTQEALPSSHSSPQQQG
Briefly: IL-18 Binding Protein alphaLISA assay (Example 12). The settings on record: human IL-18BP. How it is done: Wild type or modified IL-18 polypeptides samples were diluted at 5.6 μM in a solution of 1× alphaLISA Immunoassay Buffer provided in the alphaLISA IFNγ Detection kit and were diluted applying 3-fold serial dilutions down to […] in 384 deep well plates. A solution of 10 ng/ml of human IL-18BP-His was prepared with 1×alphaLISA Immunoassay Buffer. IL-18/IL-18BP complex formation was performed incubating 30 μl of IL-18BP solution to IL-18 sample titrations for 1 h at 20° C. IL-18BP standard was prediluted from stock solution supplied in alphaLISA IFNγ Detection kit at 100 ng/ml with 1×alphaLISA Buffer and titration prepared from applying 2-fold serial dilutions. The following solutions were prepared: a 50 μg/ml solution of anti-IL-18BP alphaLISA Acceptor beads, a 5 nM solution of biotinylated anti-IL18BP antibody and a 80 μg/ml light-protected solution of Streptavidin Donor beads in 1×alphaLISA Immunoassay Buffer. […]
5 μl of Biotinylated anti-IL-18BP antibody were added, followed by a short centrifugation step at 150 g, and incubated for 60 minutes at 20° C. under shaking at 750 rpm. […] AlphaLisa signal was then measured on an Enspire plate reader (Perkin Elmer) using 680 and 615 nm as excitation and emission wavelengths respectively. […]

Assay [8] concerns NK92 cells. As to the kind of experiment: IFN gamma secretion assay in NK92 cells (Example 10). The assay is classed as cell-based, human. Particulars: IFNγ secretion, 1 ng/ml IL-12. How it is done:
The IFNγ-secretion stimulating activity of the unconjugated IL-18 variants and corresponding IL-18 immunocytokines was evaluated on NK92 cell line. The NK cell line NK-92 derived from a patient with lymphoma (ATCC, Cat #CRL-2407) was cultured in aMEM medium supplemented with 12.5% FCS, 12.5% horse serum (HS), 50 uM B-mercaptoEthanol, and 2 ng/ml of recombinant Human Interleukin-2 (IL-2).
On the day of experiment, cells were harvested and washed with aMEM medium without IL-2 and resuspended in medium (w/o IL-2) containing 1 ng/ml of recombinant human Interleukin-12 (SinoBiologicals, Cat #CT011-H08H). After counting, cells were seeded at 100 000 cells/well in a 384 well titer plate and incubated at 37° C./5% CO2. Sixteen 4-fold serial dilutions of IL-18 analytes were prepared in aMEM medium—1 ng/ml IL-12 and were added to the NK-92 cells. […]
After 16-20 h incubation at 37° C./5% CO2, 5 μl of supernatant were carefully transferred to a 384 microwells OPTIPlate (Perkin Elmer; Cat #6007270) and Interferon-gamma (IFNγ) levels measured using the Human IFNγ AlphaLISA Assay Kit (Perkin Elmer, Cat #AL217C). […] AlphaLisa signal was then measured on an Enspire plate reader (Perkin Elmer) using 680 and 615 nm as excitation and emission wavelengths respectively. Half maximal effective concentration (EC50) was calculated based on a variable slope, four parameter analysis using GraphPad PRISM software.

Assay [9] deals with NK92 cells. As to the kind of experiment: Cellular IL-18 Binding Protein resistance assay in NK92 cells (Example 13). In kind it is cell-based, human. The settings on record: IL-18BP-mediated inhibition of IFNγ secretion, IL-18 analyte 1 nM. On the procedure:
The NK cell line NK-92 derived from a patient with lymphoma (ATCC, Cat #CR^L-2407) was cultured in αMEM medium supplemented with 20% FCS-Glutamax, 25 μM B-mercaptoethanol, and 100 IU/ml of recombinant Human Interleukin-2 (IL-2). On the day of experiment, cells were harvested and washed with αMEM medium without IL-2. After counting, cells were seeded at 100 000 cells/well in a 384 well titer plate and incubated at 37° C./5% CO2. Sixteen 2-fold serial dilutions of Fc fused human IL-18 binding protein isoform a (IL-18BPa; R&D systems, Cat #119-BP) were prepared in αMEM medium—1 ng/ml IL-12 containing 2 nM of each IL-18 variants and were added to the NK-92 cells. Final IL-18 analytes concentration was 1 nM and final IL-18BPa concentrations ranged from to 566 nM down to 17 pM.
After 16-20 h incubation at 37° C./5% CO2, 5 μl of supernatant were carefully transferred to a 384 microwells OPTIplate (Perkin Elmer; Cat #6007270) and Interferon-gamma (IFNγ) levels measured using the Human IFNγ AlphaLISA Assay Kit (Perkin Elmer, Cat #AL217C). […] AlphaLisa signal was then measured on an Enspire plate reader (Perkin Elmer) using 680 and 615 nm as excitation and emission wavelengths respectively. Half maximal inhibitory concentration (IC50) was calculated based on a variable slope, four parameter analysis using GraphPad PRISM software.

Assay [10] concerns parental PD-1 negative KG-1 cells. Briefly: IFN gamma secretion assay in parental PD-1 negative KG-1 cells (Example 11). The assay is classed as cell-based, human. Particulars: IFNγ secretion. How it is done:
as §4, §5

T1 sequence (P55899 24-297 limits assumed): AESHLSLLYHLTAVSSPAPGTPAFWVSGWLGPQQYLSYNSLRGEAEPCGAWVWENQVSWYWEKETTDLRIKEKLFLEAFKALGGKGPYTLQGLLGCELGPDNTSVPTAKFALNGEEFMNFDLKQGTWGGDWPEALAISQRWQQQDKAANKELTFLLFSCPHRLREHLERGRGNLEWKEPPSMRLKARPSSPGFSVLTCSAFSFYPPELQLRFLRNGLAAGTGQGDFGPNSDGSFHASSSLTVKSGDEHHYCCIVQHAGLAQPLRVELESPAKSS
T1 sequence (P61769 21-119 partner): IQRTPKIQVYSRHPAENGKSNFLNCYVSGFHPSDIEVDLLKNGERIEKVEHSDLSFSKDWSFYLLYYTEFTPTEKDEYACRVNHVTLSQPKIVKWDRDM
T6 sequence (P12314 16-374): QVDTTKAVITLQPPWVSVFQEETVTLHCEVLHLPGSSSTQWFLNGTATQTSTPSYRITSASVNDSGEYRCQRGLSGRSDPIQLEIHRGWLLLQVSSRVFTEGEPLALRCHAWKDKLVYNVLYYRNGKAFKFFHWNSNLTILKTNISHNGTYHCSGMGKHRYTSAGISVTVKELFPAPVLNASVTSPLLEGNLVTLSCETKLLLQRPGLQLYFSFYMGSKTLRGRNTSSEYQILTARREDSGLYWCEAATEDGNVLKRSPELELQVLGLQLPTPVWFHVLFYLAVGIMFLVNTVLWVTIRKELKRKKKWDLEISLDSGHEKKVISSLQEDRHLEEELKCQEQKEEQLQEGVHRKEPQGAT

The Kd is the free concentration of one partner at which half of the binding sites on the other are occupied at equilibrium, for simple one-to-one binding. Low readings indicate a tighter complex, high ones a looser complex. Consider Atezolizumab/Tecentriq, for which the Kd in assay [1] is 6.4 nM; with human PD-1/CD279, above 100 nM; in the assay with human PD-L1/B7-H1, 0.443 nM; in [2] it was 356 nM; in [3], 1370 nM; in assay [4] it was 9.17 nM. Besides, the Kd in [5] is above 10000 nM.

Usually EC50 stands for the concentration that produces a half-maximal response. What is called IC50 is the point on the concentration scale where inhibition reaches its midpoint. A lower IC50 goes with higher potency. For “SEQ ID NO: 31: IL-18 polypeptide: C38A, C76A, C127A”, the EC50 stood at 0.135 nM in [6] (IFNγ secretion, PD-1 transduced KG-1); 0.103 nM with NK92 cells [8]; 0.148 nM in assay [10]. Besides, the “PD-1^neg/PD-1^pos EC50 ratio” value in assay [6] (KG-1 cells) came out at 1.2. In assay [7], this substance displayed a Kd of 0.103 nM. Moreover, in the assay on NK92 cells [9], the half-maximal inhibitory concentration (IC50) is 0.282 nM.
